Measurements: patent publication US20180126009A1 (SURGIMAB S A S, published 2018)

Assays:
carcinoembryonic antigen [1] = target: T1, carcinoembryonic antigen (UniProt P06731 35-685, limits assumed); assay: SPR, BIACORE 3000, CEA thiol-coupled to CM5 chip, antibody in flow at 50 nM to 1.5 nM; chimeric antibody of Example 1, unlabelled
T1 construct: Antigen preparation used in the SPR assay; also called CEA
T1 sequence (looked up): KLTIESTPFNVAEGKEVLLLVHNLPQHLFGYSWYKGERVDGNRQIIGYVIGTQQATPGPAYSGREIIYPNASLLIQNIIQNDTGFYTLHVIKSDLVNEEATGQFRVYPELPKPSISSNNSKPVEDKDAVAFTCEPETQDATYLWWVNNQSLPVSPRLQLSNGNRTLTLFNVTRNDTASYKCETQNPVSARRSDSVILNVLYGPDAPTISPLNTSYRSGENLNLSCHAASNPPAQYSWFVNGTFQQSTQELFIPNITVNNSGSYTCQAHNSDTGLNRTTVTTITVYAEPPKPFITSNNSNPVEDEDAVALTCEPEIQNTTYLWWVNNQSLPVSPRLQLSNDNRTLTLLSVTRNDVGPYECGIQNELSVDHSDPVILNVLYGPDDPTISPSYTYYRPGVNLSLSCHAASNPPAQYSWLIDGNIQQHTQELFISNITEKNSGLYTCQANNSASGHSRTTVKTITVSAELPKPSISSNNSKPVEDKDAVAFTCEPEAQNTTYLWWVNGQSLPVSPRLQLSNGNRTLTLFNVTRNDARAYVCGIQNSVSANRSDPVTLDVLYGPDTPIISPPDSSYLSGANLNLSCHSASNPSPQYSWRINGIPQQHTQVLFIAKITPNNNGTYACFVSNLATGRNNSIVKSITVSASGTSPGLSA
Description: (§1) The affinity of the fluorescent conjugate as prepared in Example 3 to the target carcinoembryonic antigen was also determined, using surface plasmon resonance (SPR) on a BIACORE 3000 device. Carcinoembryonic antigen was coupled to a CM5 chip via the thiol groups (Surface Thiol Coupling GE healthcare; Instruction 22-0618-10AB). Association and dissociation rates were measured using in the flow 6 different concentrations (from 50 nM to 1.5 nM) of the chimeric monoclonal antibody of Example 1, the monoclonal antibody m511 (the original murine antibody from which the variable regions the chimeric monoclonal antibody of Ex. 1 is based) and fluorescent conjugate. Data acquisition and parameters calculations were performed using the Bia software and Bia evaluation programs.

carcinoembryonic antigen [2] = target: T1, carcinoembryonic antigen; assay: SPR, BIACORE 3000, CEA thiol-coupled to CM5 chip, antibody in flow at 50 nM to 1.5 nM; parental murine antibody m511
Description: as §1

carcinoembryonic antigen [3] = target: T1, carcinoembryonic antigen; assay: SPR, BIACORE 3000, CEA thiol-coupled to CM5 chip, conjugate in flow at 50 nM to 1.5 nM; chimeric antibody labelled with the near-infrared dye (conjugate of Ex. 3)
Description: as §1

B1: anti-CEA chimeric monoclonal antibody of Example 1 (antibody, human IgG1, V domains shown)
VH: DVQLVESGGGLVQPGGSRKLSCAASGFTFSNFGMHWIRQAPEKGLEWVAYISGGSSTIYFADTLKGRFTISRDNPKNTLFLQMTSLRSEDTAIYYCARDYYINNYWYFDVWGAGTTVTVSS
VL: DIVMTQSQKFMSTSVGDRVSITCKASQNVRSAVAWYQQTPGQSPKALIYLASNRYTGVPDRFTGSGSGTDFTLTISNVQSEDLADYFCLQHWNYPLTFGGGTKLELK
notes: Expressed in CHO cells; 148.6 kDa by MALDI-TOF; also called chimeric mAb directed against CEA; anti-CEA chimeric mAb
Kd (carcinoembryonic antigen [1]): 0.0327 nM

B2: monoclonal antibody m511 (antibody, V domains shown)
VH: DVQLVESGGGLVQPGGSRKLSCAASGFTFSNFGMHWIRQAPEKGLEWVAYISGGSSTIYFADTLKGRFTISRDNPKNTLFLQMTSLRSEDTAIYYCARDYYINNYWYFDVWGAGTTVTVSS
VL: DIVMTQSQKFMSTSVGDRVSITCKASQNVRSAVAWYQQTPGQSPKALIYLASNRYTGVPDRFTGSGSGTDFTLTISNVQSEDLADYFCLQHWNYPLTFGGGTKLELK
notes: Murine parental antibody; also called parental murine 511 antibody; original murine antibody
Kd (carcinoembryonic antigen [2]): 0.0382 nM

B3: fluorescent conjugate of Example 3 (anti-CEA chimeric mAb of Example 1 coupled to the fluorochrome of Formula (IV)) (antibody, V domains shown)
VH: DVQLVESGGGLVQPGGSRKLSCAASGFTFSNFGMHWIRQAPEKGLEWVAYISGGSSTIYFADTLKGRFTISRDNPKNTLFLQMTSLRSEDTAIYYCARDYYINNYWYFDVWGAGTTVTVSS
VL: DIVMTQSQKFMSTSVGDRVSITCKASQNVRSAVAWYQQTPGQSPKALIYLASNRYTGVPDRFTGSGSGTDFTLTISNVQSEDLADYFCLQHWNYPLTFGGGTKLELK
modifications: cyanine fluorochrome (NHS ester of Formula (IV), giving moiety F of formula (II)) coupled to the antibody; average fluorochrome/antibody molar ratio 1.5-1.6; sites of coupling not stated
notes: In the tissue cross-reactivity study the conjugate was also biotin labelled; also called conjugate of Ex. 3
Kd (carcinoembryonic antigen [3]): 0.0321 nM
